In US20210079423:

Tests used:
[1] = tested on: PR402: SP(HSA)-PTEN-L-HSA-6xHis (secreted, mature form)
[2] = tested on: PR405: SP(HSA)-PTEN-L-MMP2/9-HSA-6xHis (secreted form)
[3] = tested on: PR407: SP(HSA)-PTEN-L-cathepsin B*-HSA-6xHis (secreted form)
[4] = tested on: PR408: SP(HSA)-PTEN-L-cathepsinB**-HSA-6xHis (secreted form)
[5] = tested on: PR406: SP(HSA)-PTEN-L-cathepsin B-HSA-6xHis (secreted form)

recombinant active MMP2 protease (Enzo cat. #BML-SE237-0010), sequence (chain, as listed by the source): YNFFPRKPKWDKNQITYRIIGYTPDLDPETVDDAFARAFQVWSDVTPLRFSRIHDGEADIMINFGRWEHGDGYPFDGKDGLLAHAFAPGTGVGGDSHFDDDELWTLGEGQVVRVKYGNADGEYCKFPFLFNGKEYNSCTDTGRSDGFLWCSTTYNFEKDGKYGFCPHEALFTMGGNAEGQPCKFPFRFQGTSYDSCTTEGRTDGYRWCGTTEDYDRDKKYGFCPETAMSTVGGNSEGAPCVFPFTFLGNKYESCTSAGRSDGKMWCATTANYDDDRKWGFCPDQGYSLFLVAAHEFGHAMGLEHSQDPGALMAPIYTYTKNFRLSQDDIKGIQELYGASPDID

Substance	in vitro cleavage of the fusion (F-1 anti-PTEN western blot of digests at t=0, 4 h, 21 h) [1]	in vitro cleavage of the fusion, release of a PTEN-L-like fragment (~70 KDa) [2]	in vitro cleavage of the fusion [3]	in vitro cleavage of the fusion [4]	in vitro cleavage of the fusion [5]	in vitro cleavage of the fusion [2]	pH dependence of in vitro cleavage (pH 5.0 against pH 7.0 buffer) [3]	pH dependence of in vitro cleavage (pH 5.0 against pH 7.0 buffer) [4]
recombinant active MMP2 protease (Enzo cat. #BML-SE237-0010)	PR402 was not appreciably cleaved by either recombinant MMP2 or CATSB	MMP2 did however cleave its consensus site (SEQ ID NO:165) on PR405 only; this cleavage released a PTEN-L-like fragment (~70 KDa)	MMP2 did however cleave its consensus site (SEQ ID NO:165) on PR405 only	MMP2 did however cleave its consensus site (SEQ ID NO:165) on PR405 only	MMP2 did however cleave its consensus site (SEQ ID NO:165) on PR405 only	–	–	–
active CATSB (Cathepsin B; BioVision #7580-5)	PR402 was not appreciably cleaved by either recombinant MMP2 or CATSB	–	–	–	though it did not cleave PR406 (SEQ ID NO:130; cDNA SEQ ID NO:158)	PR405 (SEQ ID NO:129; cDNA SEQ ID NO:157) was not cleaved by CATSB	CATSB only cleaves PR407 and PR408 at a low pH (FIG. 15)	CATSB only cleaves PR407 and PR408 at a low pH (FIG. 15)
